Four molecules from article PMC8831599, “Defining molecular glues with a dual-nanobody cannabidiol sensor” (Nature Communications, 2022) can be followed below.

Ends that are not written are not given here.

Details in all cases: both partners purified
In experiment [1] the target is T1, GST-TIR1-ASK1 complex (Arabidopsis thaliana, UniProt Q570C0 1-594; Q39255 1-160).
T1 construct: F-box protein TIR1, Arabidopsis thaliana; ASK1 (SKP1 homologue), Arabidopsis thaliana; also called GST-tagged TIR1
T1 sequence (looked up) 1: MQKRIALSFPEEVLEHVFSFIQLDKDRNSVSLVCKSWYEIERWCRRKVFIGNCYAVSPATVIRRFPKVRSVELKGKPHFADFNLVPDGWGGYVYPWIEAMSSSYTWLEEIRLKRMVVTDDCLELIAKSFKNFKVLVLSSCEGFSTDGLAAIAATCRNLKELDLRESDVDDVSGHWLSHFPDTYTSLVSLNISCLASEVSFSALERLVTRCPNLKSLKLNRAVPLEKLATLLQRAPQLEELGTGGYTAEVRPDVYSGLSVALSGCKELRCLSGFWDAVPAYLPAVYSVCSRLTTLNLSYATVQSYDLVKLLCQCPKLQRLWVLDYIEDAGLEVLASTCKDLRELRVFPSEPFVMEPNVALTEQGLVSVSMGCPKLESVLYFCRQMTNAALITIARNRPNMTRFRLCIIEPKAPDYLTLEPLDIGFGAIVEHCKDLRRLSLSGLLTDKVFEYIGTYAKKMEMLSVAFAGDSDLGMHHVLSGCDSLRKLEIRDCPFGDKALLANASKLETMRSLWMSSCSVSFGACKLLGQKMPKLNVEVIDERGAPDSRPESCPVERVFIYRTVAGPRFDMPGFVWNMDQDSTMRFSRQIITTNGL
T1 sequence (looked up) 2: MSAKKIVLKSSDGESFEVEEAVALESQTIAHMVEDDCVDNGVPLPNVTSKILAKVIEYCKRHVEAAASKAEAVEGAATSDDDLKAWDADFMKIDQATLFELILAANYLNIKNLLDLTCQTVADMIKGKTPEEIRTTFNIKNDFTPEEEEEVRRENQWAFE
Briefly: AlphaScreen or HTRF; competition without auxin: 0.9 nM GST-TIR1 on acceptor beads, 8.3 nM biotinylated IAA7 degron peptide on donor beads, label-free IAA7 degron peptide titrated.

Experiment [2] addresses T1, GST-TIR1-ASK1 complex. Briefly: BLI; TIR1 and IAA7 degron without auxin; biotinylated IAA7 on streptavidin probe or GST-TIR1 on anti-GST probe (not told which); 30 °C; 25 mM HEPES pH 7.4, 100 mM NaCl, 1 mM TCEP, 0.1% Tween-20, 0.05 mg/mL BSA.
Experiment [3] concerns the target T2, DDB1-CRBN complex (CRBN Δ1-40 with full-length DDB1), tag-free (human, UniProt Q96SW2 41-442; Q16531 1-1140).
T2 construct: human cereblon (CRBN) lacking residues 1-40; human DDB1; also called CRBN–DDB1 complex; CRBN in complex with full-length DDB1; source: Hi5 insect cells, co-expressed, purified (Ni-NTA, TEV, anion exchange, SEC); not shown: SUMO-tag, N-terminal, cleaved; His-Msb-tag, N-terminal, cleaved
Briefly: BLI; biotinylated IKZF1 ZF2-3 or CK1α on streptavidin probe, tag-free DDB1–CRBN as analyte, no IMiD; 30 °C; 25 mM HEPES pH 7.4, 100 mM NaCl, 1 mM TCEP, 0.1% Tween-20, 0.05 mg/mL BSA.

Experiment [4] deals with T3, His-DDB1–CRBN complex (human, UniProt Q96SW2 41-442; Q16531 1-1140).
T3 construct: human cereblon (CRBN) lacking residues 1-40; human DDB1; Held on AlphaScreen acceptor beads by the His-tag; source: Hi5 insect cells, co-expressed, purified (Ni-NTA); not shown: His-Msb-tag, N-terminal, kept
Briefly: AlphaScreen or HTRF; competition without pomalidomide: 0.9 nM His-DDB1–CRBN on acceptor beads, 8.3 nM biotinylated IKZF1 ZF2-3 on donor beads, label-free IKZF1 ZF2-3 titrated.

B1: IAA7 degron peptide, non-labeled (peptide)
chain: QVVGWPPVRNYRK
modifications: synthetic peptide, unlabelled; limits not given, taken from the IAA7 degron peptide of the TIR1-ASK1 crystal structures (13-mer, PDB 2P1Q)
In experiment [1], B1 gave an IC50 of 18 to 20 µM. Also, binding in experiment [2] was characterised by a dissociation constant (Kd) of 18.5 µM.

B2: Biotin-labeled Avi-IKZF1 ZF2-3 (141-196) (domain or fragment, human, UniProt Q13422 141-196, looked up)
chain: {Avi‑tag(biotin)}-GERPFQCNQCGASFTQKGNLLRHIKLHSGEKPFKCHLCNYACRRRDALTGHLRTHS
modifications: cysteine pairing not given here
notes: human IKZF1 (Ikaros), zinc fingers 2-3, residues 141-196; also called biotinylated IKZF1^ZF2-3; not shown: GST, N-terminal, cleaved; Avi-tag, N-terminal, kept
On to B2, for which, in experiment [3], the Kd came to 223 nM.

B3: Biotin-labeled Avi-CK1α (enzyme, human, UniProt P48729 1-337, looked up)
chain: MASSSGSKAEFIVGGKYKLVRKIGSGSFGDIYLAINITNGEEVAVKLESQKARHPQLLYESKLYKILQGGVGIPHIRWYGQEKDYNVLVMDLLGPSLEDLFNFCSRRFTMKTVLMLADQMISRIEYVHTKNFIHRDIKPDNFLMGIGRHCNKLFLIDFGLAKKYRDNRTRQHIPYREDKNLTGTARYASINAHLGIEQSRRDDMESLGYVLMYFNRTSLPWQGLKAATKKQKYEKISEKKMSTPVEVLCKGFPAEFAMYLNYCRGLRFEEAPDYMYLRQLFRILFRTLNHQYDYTFDWTMLKQKAAQQAASSSGQGQQAQTPTGKQTDKTKSNMKGF
modifications: biotin on the Avi-tag (BirA-catalyzed)
notes: human casein kinase 1 alpha (CK1α); also called CK1a; source: Hi5 insect cells, purified (Ni-NTA, TEV, cation exchange, SEC, BirA biotinylation, SEC); not shown: His-Set3, N-terminal, cleaved; Avi-tag, N-terminal, kept
As for B3, the Kd in experiment [3] worked out at 2300 nM.

B4: Label-free IKZF1 ZF2-3 (141-196) (domain or fragment, human, UniProt Q13422 141-196, looked up)
chain: GERPFQCNQCGASFTQKGNLLRHIKLHSGEKPFKCHLCNYACRRRDALTGHLRTHS
notes: human IKZF1 (Ikaros), zinc fingers 2-3, residues 141-196; also called Avi-IKZF1^ZF2-3; not shown: GST, N-terminal, cleaved
Take B4: the half-maximal inhibitory concentration (IC50) in experiment [4] lay within 200 to 300 nM.
